How the values were obtained:
[1] = molecular target: T1, human TCR/CD3 complex on cell surfaces (primary human CD4+ T cells; Jurkat cells; human PBMCs) (human, UniProt P07766 23-207); test: FACS on primary human T cells, PE goat anti-human IgG, MFI
T1 construct: whole, on cells; Native complex on cells; the γ, δ, ζ and TCR chains of the complex are present on the cells too; also called human CD3 complexes on cell surfaces; human CD3+ T cells

[2] = molecular target: T2, human CD3ε-his (Cat #:10977-H08s, SinoBiological, China) (human, UniProt P07766 23-126); test: ELISA: plate coated with human CD3ε-his, antibody titrated, HRP goat anti-human IgG, OD450
T2 construct: Bought protein; also called human CD3ε protein; recombinant human CD3ε; not shown: his tag
T2 sequence (P07766 23-126 limits assumed): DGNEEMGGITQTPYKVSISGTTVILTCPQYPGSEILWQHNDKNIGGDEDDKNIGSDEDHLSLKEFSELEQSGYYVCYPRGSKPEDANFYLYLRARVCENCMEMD

[3] = molecular target: T3, monkey CD3ε-his (Cat #: 90047-C08H, SinoBiological, China) (monkey, UniProt Q95LI5 22-117); test: ELISA: plate coated with monkey CD3ε-his, antibody titrated, HRP goat anti-human IgG, OD450
T3 construct: Bought protein; also called monkey CD3ε protein; recombinant monkey CD3ε
T3 sequence: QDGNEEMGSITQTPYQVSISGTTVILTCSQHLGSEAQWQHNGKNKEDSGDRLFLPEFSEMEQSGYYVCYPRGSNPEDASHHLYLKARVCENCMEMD

[4] = molecular target: T2, human CD3ε-his (Cat #:10977-H08s, …); test: ELISA: plate coated with human CD3ε-his, antibody titrated, HRP goat anti-human IgG, OD 450
[5] = molecular target: T3, monkey CD3ε-his (Cat #: 90047-C08H, …); test: ELISA: plate coated with monkey CD3ε-his, antibody titrated, HRP goat anti-human IgG, OD 450
[6] = molecular target: T4, human CD32A (HEK293A/human CD32A cells) (human, UniProt P12318 34-317); test: FACS on HEK293A/human CD32A cells, PE F(ab')2 goat anti-human IgG Fc, MFI; bars at 40, 8, 1.6, 0.32 and 0.064 µg/mL
T4 construct: Stably expressed on HEK293A cells; also called FcγRIIA
T4 sequence: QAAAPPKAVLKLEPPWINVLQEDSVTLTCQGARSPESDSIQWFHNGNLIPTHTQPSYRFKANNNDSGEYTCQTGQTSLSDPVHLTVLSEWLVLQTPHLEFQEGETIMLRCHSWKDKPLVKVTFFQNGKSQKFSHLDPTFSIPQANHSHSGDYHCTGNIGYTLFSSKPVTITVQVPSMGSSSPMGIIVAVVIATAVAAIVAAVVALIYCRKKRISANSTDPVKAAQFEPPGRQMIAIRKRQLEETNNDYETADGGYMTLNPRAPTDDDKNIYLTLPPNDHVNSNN

[7] = molecular target: T5, human CD32B (HEK293A/human CD32B cells) (human, UniProt P31994 43-310); test: FACS on HEK293A/human CD32B cells, PE F(ab')2 goat anti-human IgG Fc, MFI; bars at 40, 8, 1.6, 0.32 and 0.064 µg/mL
T5 construct: Stably expressed on HEK293A cells; also called FcγRIIB
T5 sequence: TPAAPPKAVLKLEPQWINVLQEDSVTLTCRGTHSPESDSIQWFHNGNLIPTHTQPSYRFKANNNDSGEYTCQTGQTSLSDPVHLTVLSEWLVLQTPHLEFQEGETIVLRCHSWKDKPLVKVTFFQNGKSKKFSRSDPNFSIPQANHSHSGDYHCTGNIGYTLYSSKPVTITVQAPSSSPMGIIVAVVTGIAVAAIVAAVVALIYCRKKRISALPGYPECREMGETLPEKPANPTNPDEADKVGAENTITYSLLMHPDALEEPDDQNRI

[8] = molecular target: T6, human CD16A (HEK293A/human CD16A cells) (human, UniProt P08637 17-254); test: FACS on HEK293A/human CD16A cells, PE F(ab')2 goat anti-human IgG Fc, MFI; bars at 40, 8, 1.6, 0.32 and 0.064 µg/mL
T6 construct: Stably expressed on HEK293A cells; also called FcγRIIIA
T6 sequence (P08637 17-254 F176V limits assumed): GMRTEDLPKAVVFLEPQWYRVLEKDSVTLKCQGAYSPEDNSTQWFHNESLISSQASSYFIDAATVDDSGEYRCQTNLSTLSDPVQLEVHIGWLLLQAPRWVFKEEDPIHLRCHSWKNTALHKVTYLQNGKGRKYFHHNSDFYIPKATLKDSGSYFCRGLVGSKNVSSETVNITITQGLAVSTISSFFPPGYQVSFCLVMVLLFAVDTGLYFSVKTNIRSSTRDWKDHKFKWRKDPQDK

[9] = molecular target: T7, human CD64 (HEK293A/human CD64 cells) (human, UniProt P12314 16-374); test: FACS on HEK293A/human CD64 cells, PE F(ab')2 goat anti-human IgG Fc, MFI; bars at 40, 8, 1.6, 0.32 and 0.064 µg/mL
T7 construct: Stably expressed on HEK293A cells; also called FcγRI
T7 sequence (P12314 16-374 limits assumed): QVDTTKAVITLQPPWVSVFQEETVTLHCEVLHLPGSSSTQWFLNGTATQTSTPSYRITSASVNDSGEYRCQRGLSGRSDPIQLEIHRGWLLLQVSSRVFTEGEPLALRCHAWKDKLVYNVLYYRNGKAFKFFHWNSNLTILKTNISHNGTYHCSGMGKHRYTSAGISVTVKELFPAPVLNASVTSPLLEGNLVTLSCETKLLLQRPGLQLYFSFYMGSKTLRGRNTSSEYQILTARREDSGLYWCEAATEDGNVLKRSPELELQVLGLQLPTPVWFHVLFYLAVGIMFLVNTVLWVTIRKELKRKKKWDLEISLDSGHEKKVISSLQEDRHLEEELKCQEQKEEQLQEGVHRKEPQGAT

[10] = molecular target: T1, human TCR/CD3 complex on cell surfaces …; test: FACS on Jurkat cells, PE goat anti-human IgG, MFI

T1 sequence (P07766 23-207, one chain of several): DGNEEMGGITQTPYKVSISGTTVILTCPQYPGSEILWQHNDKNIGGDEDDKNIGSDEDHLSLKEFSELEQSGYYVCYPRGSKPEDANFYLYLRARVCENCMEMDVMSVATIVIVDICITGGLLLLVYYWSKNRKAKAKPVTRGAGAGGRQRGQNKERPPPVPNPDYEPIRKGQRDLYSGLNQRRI

Binder | binding result [6] | binding result [7] | binding result [8] | binding result [9] | EC50 (read off the curve) [10] | further results
chimeric antibody 19-37 (full length, human IgG1) (antibody, V domains shown) VH: EVKLLESGGGLVQPKGSLKLSCAASGFTFNTYAMNWVRQAPGKGLEWVARIRSKYNNYATYYAISVKDRFTISRDDSQSILYLQMNNLKTEDTAMYYCVRHGNFGNSYISYWAYWGQGTLVTVSA VL: QAVVTQESALTTSPGETVTLTCRSSTGAVTTNNYANWVQEKPDHLFTGLIGGTRLSAPGVPARFSGSLIGDKAALTITGAQTEDEAIYFCVLWYSNLWVFGGGTKLTVLG |  |  |  |  |  | EC50 (read off the curve) [1]: ~100 µg/mL
humanized anti-CD3 antibody 15H2L3 (human IgG1) (antibody, V domains shown) VH: EVQLLESGGGLVQPGGSLRLSCAASGFTFNTYAMNWVRQAPGKGLEWVARIRSKYNNYATYYAISVKDRFTISRDNSKNTLYLQMNSLRAEDTAVYYCVKHGNFGNSYLSYWAYWGQGTLVTVSS VL: QAVVTQEPSLTVSPGGTVTLTCQSSTGAVTTNNYANWVQQKPGHAFRGLIGGTKQRAPGVPARFSGSLLGGKAALTLSGVQPEDEAEYYCVLWYSNLWVFGGGTKLTVLG |  |  |  |  |  | EC50 (read off the curve) [2]: ~80 µg/mL; EC50 (read off the curve) [3]: ~90 µg/mL
humanized anti-CD3 antibody 26H3L3 (human IgG1) (antibody, V domains shown) VH: EVQLLESGGGLVQPGGSLRLSCAASGFTFNTYAMNWVRQAPGKGLEWVARIRSKYNNYATYYADSVKDRFTISRDDSKNTLYLQMNSLRAEDTAMYYCVRHGNFGNSYISWWAYWGQGTLVTVSS VL: QAVVTQEPSLTVSPGGTVTLTCKSSTGAVTTSNYANWVQQKPGHAFRGLIGGTNLHAPGVPARFSGSLLGGKAALTLSGVQPEDEAEYYCALWYSNLWVFGGGTKLTVLG |  |  |  |  |  | EC50 (read off the curve) [4]: ~0.08 µg/mL; EC50 (read off the curve) [5]: ~0.1 µg/mL
15H3L3-WT (15H3L3 with wild-typed IgG1 constant region and λ constant region SEQ ID NO: 32) (antibody, also called 15H3L3 antibody with wild-typed Fc region) heavy: not shown light: QAVVTQEPSLTVSPGGTVTLTCQSSTGAVTTNNYANWVQQKPGHAFRGLIGGTKQRAPGVPARFSGSLLGGKAALTLSGVQPEDEAEYYCVLWYSNLWVFGGGTKLTVLGQPKAAPSVTLFPPSSEELQANKATLVCLISDFYPGAVTVAWKADSSPVKAGVETTTPSKQSNNKYAASSYLSLTPEQWKSHRSYSCQVTHEGSTVEKTVAPT | binds | binds | binds | binds | ~0.1 µg/mL | 
15H3L3-LL (15H3L3 with IgG1 constant region L234A/L235A) (antibody) heavy: not shown light: QAVVTQEPSLTVSPGGTVTLTCQSSTGAVTTNNYANWVQQKPGHAFRGLIGGTKQRAPGVPARFSGSLLGGKAALTLSGVQPEDEAEYYCVLWYSNLWVFGGGTKLTVLGQPKAAPSVTLFPPSSEELQANKATLVCLISDFYPGAVTVAWKADSSPVKAGVETTTPSKQSNNKYAASSYLSLTPEQWKSHRSYSCQVTHEGSTVEKTVAPT | binds | binds | no binding (tested: 40 µg/mL) | binds | ~0.09 µg/mL | 
15H3L3-LLN (15H3L3 with IgG1 constant region L234A/L235A/N297A) (antibody) heavy: EVQLLESGGGLVQPGGSLRLSCAASGFTFNTYAMNWVRQAPGKGLEWVARIRSKYNNYATYYAISVKDRFTISRDDSKNTLYLQMNSLRAEDTAMYYCVRHGNFGNSYLSYWAYWGQGTLVTVSSASTKGPSVFPLAPSSKSTSGGTAALGCLVKDYFPEPVTVSWNSGALTSGVHTFPAVLQSSGLYSLSSVVTVPSSSLGTQTYICNVNHKPSNTKVDKKVEPKSCDKTHTCPPCPAPEAAGGPSVFLFPPKPKDTLMISRTPEVTCVVVDVSHEDPEVKFNWYVDGVEVHNAKTKPREEQYASTYRVVSVLTVLHQDWLNGKEYKCKVSNKALPAPIEKTISKAKGQPREPQVYTLPPSREEMTKNQVSLTCLVKGFYPSDIAVEWESNGQPENNYKTTPPVLDSDGSFFLYSKLTVDKSRWQQGNVFSCSVMHEALHNHYTQKSLSLSPGK light: QAVVTQEPSLTVSPGGTVTLTCQSSTGAVTTNNYANWVQQKPGHAFRGLIGGTKQRAPGVPARFSGSLLGGKAALTLSGVQPEDEAEYYCVLWYSNLWVFGGGTKLTVLGQPKAAPSVTLFPPSSEELQANKATLVCLISDFYPGAVTVAWKADSSPVKAGVETTTPSKQSNNKYAASSYLSLTPEQWKSHRSYSCQVTHEGSTVEKTVAPT | no binding (tested: 40 µg/mL) |  | no binding (tested: 40 µg/mL) | no binding (tested: 40 µg/mL) | ~0.09 µg/mL | 
15H3L3-LLNP (15H3L3 with IgG1 constant region L234A/L235A/N297A/P329G) (antibody, also called 15H3L3-LLPN) heavy: EVQLLESGGGLVQPGGSLRLSCAASGFTFNTYAMNWVRQAPGKGLEWVARIRSKYNNYATYYAISVKDRFTISRDDSKNTLYLQMNSLRAEDTAMYYCVRHGNFGNSYLSYWAYWGQGTLVTVSSASTKGPSVFPLAPSSKSTSGGTAALGCLVKDYFPEPVTVSWNSGALTSGVHTFPAVLQSSGLYSLSSVVTVPSSSLGTQTYICNVNHKPSNTKVDKKVEPKSCDKTHTCPPCPAPEAAGGPSVFLFPPKPKDTLMISRTPEVTCVVVDVSHEDPEVKFNWYVDGVEVHNAKTKPREEQYASTYRVVSVLTVLHQDWLNGKEYKCKVSNKALGAPIEKTISKAKGQPREPQVYTLPPSREEMTKNQVSLTCLVKGFYPSDIAVEWESNGQPENNYKTTPPVLDSDGSFFLYSKLTVDKSRWQQGNVFSCSVMHEALHNHYTQKSLSLSPGK light: QAVVTQEPSLTVSPGGTVTLTCQSSTGAVTTNNYANWVQQKPGHAFRGLIGGTKQRAPGVPARFSGSLLGGKAALTLSGVQPEDEAEYYCVLWYSNLWVFGGGTKLTVLGQPKAAPSVTLFPPSSEELQANKATLVCLISDFYPGAVTVAWKADSSPVKAGVETTTPSKQSNNKYAASSYLSLTPEQWKSHRSYSCQVTHEGSTVEKTVAPT | no binding (tested: 40 µg/mL) | no binding (tested: 40 µg/mL) | no binding (tested: 40 µg/mL) | no binding (tested: 40 µg/mL) | ~0.09 µg/mL | 
15H3L3-LLP (15H3L3 with IgG1 constant region L234A/L235A/P329G) (antibody) heavy: EVQLLESGGGLVQPGGSLRLSCAASGFTFNTYAMNWVRQAPGKGLEWVARIRSKYNNYATYYAISVKDRFTISRDDSKNTLYLQMNSLRAEDTAMYYCVRHGNFGNSYLSYWAYWGQGTLVTVSSASTKGPSVFPLAPSSKSTSGGTAALGCLVKDYFPEPVTVSWNSGALTSGVHTFPAVLQSSGLYSLSSVVTVPSSSLGTQTYICNVNHKPSNTKVDKKVEPKSCDKTHTCPPCPAPEAAGGPSVFLFPPKPKDTLMISRTPEVTCVVVDVSHEDPEVKFNWYVDGVEVHNAKTKPREEQYNSTYRVVSVLTVLHQDWLNGKEYKCKVSNKALGAPIEKTISKAKGQPREPQVYTLPPSREEMTKNQVSLTCLVKGFYPSDIAVEWESNGQPENNYKTTPPVLDSDGSFFLYSKLTVDKSRWQQGNVFSCSVMHEALHNHYTQKSLSLSPGK light: QAVVTQEPSLTVSPGGTVTLTCQSSTGAVTTNNYANWVQQKPGHAFRGLIGGTKQRAPGVPARFSGSLLGGKAALTLSGVQPEDEAEYYCVLWYSNLWVFGGGTKLTVLGQPKAAPSVTLFPPSSEELQANKATLVCLISDFYPGAVTVAWKADSSPVKAGVETTTPSKQSNNKYAASSYLSLTPEQWKSHRSYSCQVTHEGSTVEKTVAPT |  |  | no binding (tested: 40 µg/mL) | no binding (tested: 40 µg/mL) | ~0.09 µg/mL | 
